Patent publication US20050232917 (published 2005)
Numbering of substitutions follows the chain as printed.

T1: cynomolgus/human MAdCAM chimera (on CHO cells) (cynomolgus/human)
T1 chain: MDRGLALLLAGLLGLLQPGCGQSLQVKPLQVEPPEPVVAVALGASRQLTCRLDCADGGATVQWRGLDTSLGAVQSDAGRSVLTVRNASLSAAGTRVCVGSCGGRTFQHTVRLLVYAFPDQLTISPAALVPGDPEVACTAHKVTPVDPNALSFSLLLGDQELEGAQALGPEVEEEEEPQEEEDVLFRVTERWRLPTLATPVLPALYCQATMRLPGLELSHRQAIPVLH

T2: human MAdCAM (on CHO cells) (human, UniProt Q13477)
T2 chain: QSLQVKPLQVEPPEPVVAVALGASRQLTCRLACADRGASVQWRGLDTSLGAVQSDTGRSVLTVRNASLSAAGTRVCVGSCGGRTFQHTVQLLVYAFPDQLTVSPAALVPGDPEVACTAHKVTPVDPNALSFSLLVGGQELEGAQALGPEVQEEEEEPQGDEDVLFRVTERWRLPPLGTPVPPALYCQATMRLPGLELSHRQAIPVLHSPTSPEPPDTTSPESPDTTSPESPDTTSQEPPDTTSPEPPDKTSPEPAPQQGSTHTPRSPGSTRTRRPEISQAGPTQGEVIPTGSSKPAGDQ

T3: mouse MAdCAM (mouse, UniProt Q61826)
T3 chain: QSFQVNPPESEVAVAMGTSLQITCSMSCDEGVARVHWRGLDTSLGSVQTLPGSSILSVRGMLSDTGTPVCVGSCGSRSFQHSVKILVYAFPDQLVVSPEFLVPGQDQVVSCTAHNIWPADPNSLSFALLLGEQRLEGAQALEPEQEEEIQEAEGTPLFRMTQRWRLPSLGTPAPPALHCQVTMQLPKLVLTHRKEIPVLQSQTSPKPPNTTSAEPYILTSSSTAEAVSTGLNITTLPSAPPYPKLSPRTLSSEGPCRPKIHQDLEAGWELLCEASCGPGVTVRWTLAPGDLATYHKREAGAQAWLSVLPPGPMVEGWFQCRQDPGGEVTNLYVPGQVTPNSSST

B1: 6.73.2 (antibody, V domains shown)
VH: EVQLLESGGDLVQPGGSLRLSCAASGFTFRSYAMNWVRQAPGKGLEWVSVISGRGGTTYYADSVKGRFTISRDNSKNTLYLQMNSLRAEDAAVYYCAKIAVAGEGLYYYYGMDVWGQGTTVTVSS
VL: MDMRVPAQLLGLLLLWLRGARCDIQMTQSPSSLSASVGDRVTFTCRASQNITNYLNWYQQKPGKAPKLLIYAASSLPRGVPSRFRGSGSGTDFTLTISSLQPEDFATYYCQQSYSNPPECGFGQGTTLDIKR
B2: 7.20.5 (antibody, V domains shown)
VH: QVQLQESGPGLVKPSETLSLTCTVSGSSISSYHWNWIRQPAGKGLEWIGRIYTSGSTNYNPSLKSRVTMSLDTSKNQFSLKLSSVTAADTAVYYCAREGVRYYYASGSYYYGLDVWGQGTTVTVSS
VL: not shown
B3: 6.14.2 (antibody, V domains shown)
VH: EVQLLESGGGLVQPGGSLRLSCAASGLTFNNSAMTWVRQAPGKGLEWVSTTSGSGGTTYYADSVKGRFTISRDSPKNTLYLQMNSLRAEDTAVYYCAARGYSYGTTPYEYWGQGTLVTVSS
VL: MDMRVPAQLLGLLLLWLRGARCDIQMTQSPSSLSASVGDRVTITCRASRSISSYLNWYQQKPGKAPKVLIFFVSSLQSGVPSRFSGSGSGTDFTLTISSLQPEDFATYYCQQNYIPPITFGQGTRLEIRR
B4: 1.8.2 (antibody, V domains shown)
VH: EVQLVESGGGLVKPGGSLRLSCVVSGFTFTNAWMIWVRQAPGKGLEWVGRIKRKTDGGTTDYAAPVKGRFTISRDDSKNTLYLQMNSLKTEDTAVYYCTTGGVAEDYWGQGTLVTVSS
VL: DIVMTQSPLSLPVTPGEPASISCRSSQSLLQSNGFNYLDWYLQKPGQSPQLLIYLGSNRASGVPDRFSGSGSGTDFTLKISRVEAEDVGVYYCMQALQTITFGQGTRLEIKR
B5: 1.7.2 (antibody, V domains shown)
VH: B4 VH with V24A
VL: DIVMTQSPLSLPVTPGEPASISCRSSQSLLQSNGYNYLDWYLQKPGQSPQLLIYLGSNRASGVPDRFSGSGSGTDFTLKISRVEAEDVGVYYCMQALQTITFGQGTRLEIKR
B6: 6.67.1 (antibody, V domains shown)
VH: QVQLQESGPGLVKPSETLSLTCTVSGDSISSNYWSWIRQPAGKGLEWIGRIYTSGGTNSNPSLRGRVTILADTSKNQFSLKLSSVTAADTAVYYCARDRITIIRGLIPSFFDYWGQGTLVTVSS
VL: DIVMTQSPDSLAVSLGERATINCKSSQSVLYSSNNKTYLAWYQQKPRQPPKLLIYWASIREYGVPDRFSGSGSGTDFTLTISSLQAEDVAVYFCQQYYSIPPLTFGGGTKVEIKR
B7: 6.34.2 (antibody, V domains shown)
VH: QVQLVESGGGVVQPGRSLRLSCAASGFTFSSYGMHWVRQAPGKGLEWVAVISNDGNNKYYADSVKGRFTISRDNSKNTLYLQMNSLSAEDTAVYYCARDSTAITYYYYGMDVWGQGTTVTVSS
VL: MDMRVPAQLLGLLLLWLRGARCDIQMTQSPSSLSASVGDRVTITCRASQNISSYLNWFQQKPGKAPKLLIYAASGLKRGVPSRFSGSGSGTDFTLTIRTLQPDDFATYSCHQSYSLPFTFGPGTKVDIKR
B8: 9.8.2 (antibody, V domains shown)
VH: QVQLVESGGGVVQPGRSLRLSCAASGFTFSSYGMHWVRQAPGKGLEWVAVIWYDGSNEYYADSVKGRFTISRDNSKNTLYLQMNSLRAEDTAVYYCARGAYHFAYWGQGTLVTVSS
VL: DMRVPAQLLGLLLLWLSVAGARCDIQMTQSPSSLSASVGDRVTITCQASQDISNYLNWYQQKPGKAPKLLIYDASNLETGVPSRFSGSGSGTDFTFTISSLQPEDIATYSCQHSDNLSITFGQGTRLEIKR
B9: 7.26.4 (antibody, V domains shown)
VH: QVQLVQSGAEVKKPGASVKVSCEASGYTFTSYGIDWVRQAPGQGLEWMGWISVYSGNTNYAQKLQGRVTMSTDTSTSTAYMELRSLRSDDTAVYYCAREGSSSSGDYYYGMDVWGQGTTVTVSS
VL: DIVMTQTPLSLSVTPGQPASISCKSNQSLLYSDGKTYLFWYLQKPGQPPQLLIYEVSNRFSGVPDRFSGSGSGTDFTLKISRVEAEDVGVYYCMQSIQLPWTFGQGTKVEIKR
B10: 6.77.1 (antibody, V domains shown)
VH: EVQLVESGGGLVKPGGSLRLSCAASGFTFSSYSMNWVRQAPGKGLEWVSSISSSSSYIYYADSVKGRFTISRDNAKNSLYLQMNSLRAEDTAVYYCARDGYSSGWSYYYYYGMDVWGQGTTVTVSS
VL: B9 VL with K24N, N26S, Y31L, F39N, Y92S, P100M, W101C, T102S, V109L
B11: 6.22.2 (antibody, V domains shown)
VH: QVQLVESGGGVVQPGRSLRLSCAASGHTFSSDGMHWVRQAPGKGLEWVAIIWYDGSNKYYADSVKGRFTISRDNSKNTLYLQMNSLRAEDTAVYYCARDPGYYYGMDVWGQGTTVTVSS
VL: EIVLTQSPDFQSVTPKEKVTITCRASQRIGSSLHWYQQKPDQSPKLLIKYASQSFSGVPSRFSGSGSGTNFTLTINGLEAEDAATYYCHQSGRLPLTFGGGTKVEIKR
B12: 7.16.6 (antibody, V domains shown)
VH: B9 VH with E23K, D35N, L64V, S71T, T72A, E82D
VL: B9 VL with N26S, Y31H, S32T, K35T, F39Y, V90I, S96N
B13: 6.34.2-mod (antibody, V domains shown)
VH: B7 VH with S87R
VL: B7 VL with N50S, F58Y, R98S, T99S, D103E, S109Y

Target: T1, cynomolgus/human MAdCAM chimera (on CHO …)
Assay: FACS

binding result | Binder
no binding | B1

Target: T2, human MAdCAM (on CHO cells)
Assay: competition, JY cell adhesion to CHO

IC50 [µg/mL] | Binder
0.369 | B1
0.387 | B2
0.291 | B3
0.424 | B4
0.502 | B5
0.298 | B6
0.285 | B7
0.44 | B8
0.574 | B9
0.52 | B10
0.573 | B11

Target: T1, cynomolgus/human MAdCAM chimera (on CHO …)
Assay: competition, JY cell adhesion to CHO

IC50 [µg/mL] | Binder
0.62 | B2
0.53 | B3
0.75 | B6
0.47 | B7
0.83 | B8
0.96 | B9
0.72 | B12
0.64 | B10
0.83 | B11

These binders were tested against MAdCAM-IgG1 Fc fusion (human) (assay: SPR, protocol 1).
Chain of MAdCAM-IgG1 Fc fusion (human) (chain, as listed by the source): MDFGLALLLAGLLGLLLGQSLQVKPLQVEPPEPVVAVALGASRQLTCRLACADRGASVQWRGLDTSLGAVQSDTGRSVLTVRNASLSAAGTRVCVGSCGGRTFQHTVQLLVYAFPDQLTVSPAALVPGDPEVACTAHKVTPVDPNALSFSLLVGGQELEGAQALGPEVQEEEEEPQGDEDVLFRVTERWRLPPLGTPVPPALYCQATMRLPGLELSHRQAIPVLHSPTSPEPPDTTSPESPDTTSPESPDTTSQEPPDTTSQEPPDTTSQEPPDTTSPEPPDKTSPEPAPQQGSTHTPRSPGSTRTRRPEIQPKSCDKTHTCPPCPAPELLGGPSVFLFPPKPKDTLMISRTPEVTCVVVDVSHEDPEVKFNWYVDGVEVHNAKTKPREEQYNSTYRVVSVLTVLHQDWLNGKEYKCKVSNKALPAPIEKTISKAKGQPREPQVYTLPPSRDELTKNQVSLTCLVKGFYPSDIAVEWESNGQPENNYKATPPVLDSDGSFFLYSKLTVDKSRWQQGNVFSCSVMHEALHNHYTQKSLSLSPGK

Kd [nM] | Binder
0.093 | B1
0.0077 | B3
0.035 | B4
0.042 | B5
0.0158 | B7
0.1 | B8
0.0015 | B12
0.0067 | B10

Target: T3, mouse MAdCAM
Assay: ELISA

binding result | Binder
no binding | B1
no binding | B3
no binding | B7
no binding | B8

These binders were tested against MAdCAM-IgG1 Fc fusion (human) (assay: competition, JY cell adhesion).

IC50 [µg/mL] | Binder
0.013 | B7
0.049 | B13

Each binder was assayed against MAdCAM-IgG1 Fc fusion (human) (assay: SPR, protocol 2).

Kd [nM] | Binder
< 0.01 | B3
< 0.015 | B7
0.0325 | B8
0.0048 | B12

Target: MAdCAM-IgG1 Fc fusion (human)
Assay: competition, JY cell adhesion
Remark: another data set of the same source

IC50 [µg/mL] | Binder
0.02 | B1
0.011 | B3
0.027 | B4
0.03 | B5
0.013 | B7
0.02 | B8
0.019 | B12
